The labels stand for the following.
B1: ab017 IgG (antibody, V domains shown)
VH: not shown
VL: QSVLTQPASVSGSPGQSITISCTGTSSDVGGYNYVSWYQQHPGKAPKLMIYDVSNRPSGVSNRFSGSKSGNTASLTISGLQAEDEADYYCSSYTSSSSVVFGGGTKLTVL
B2: ab114 IgG (antibody, V domains shown)
VH: QVQLVQSGGGVVQPGRSLRLSCAASGFTFSSYGMHWVRQAPGKGLEWVAVIWYDGSNKYYADSVKGRFTISRDNSKNTLYLQMNSLRAEDTAVYYCARDVSSGWSPGDFDYWGQGTLVTVSS
VL: B1 VL with D52E, S98T, V99Y, G103T, L107V
B3: ab109 IgG (antibody, V domains shown)
VH: QVQLVQSGGGVVQPGRSLRLSCAASGFTFSSYAMHWVRQAPGKGLEWVAVISYDGSNKYYADSVKGRFTISRDNSKNTLYLQMNSLRAEDTAVYYCARDQEYYDILTGASGGFDYWGQGTLVTVSS
VL: not shown
B4: ab072 IgG (antibody, V domains shown)
VH: not shown
VL: QSALTQPASVSGSPGQSITISCTGTSSDVGGYNYVSWYQQHPGKAPKLMIYDVSNRPSGVSNRFSGSKSGNTASLTISGLQAEDEADYYCSSYTSSSTLVVFGTGTKVTVL
B5: ab007 IgG (antibody, V domains shown)
VH: QVQLVQSGAEVKKPGSSVKVSCKASGGTFSSYAISWVRQAPGQGLEWMGGIIPIFGTANYAQKFQGRVTITADESTSTAYMELSSLRSEDTAVYYCASPHCSSTSCLYHYYYYGMDVWGQGTTVTVSS
VL: not shown
B6: ab119 IgG (antibody, V domains shown)
VH: EVQLVESGGGLIQPGGSLRLSCAASGFTVSSNYMSWVRQAPGKGLEWVSVIYSGGSTYYADSVKGRFTISRDNSKNTLYLQMNSLRAEDTAVYYCARDLRGITWGQGTLVTVSS
VL: not shown
B7: ab072 Fab (Fab, V domains shown)
VH: not shown
VL: B4 VL

Positions count from the first letter of the chain named.

The target of the first assay is WIV1 RBD (bat SARS-like CoV WIV1, GenBank …, UniProt U5WI05). Description: ELISA. For orientation: ELISA stands for enzyme-linked immunosorbent assay.
In the case of B1, the binding result is given as “binds”.
Still for that read-out and setting: with B2 the entry was “binds”; with B3, “binds”.
Regarding B4, the binding result is reported as “binds”.

A further assay has as its target RaTG13 RBD (bat CoV RaTG13, GenBank MN996532.2, UniProt A0ABF7PLN6). Description: ELISA.
Take B1: the binding result is given as “binds”.
Consider B2, for which the binding result is listed as “binds”.
On the same count and under the same terms, with B3 the entry was “binds”; with B4, “binds”.

The target in a further assay is SHC014 RBD (bat CoV SHC014, GenBank QJE50589.1, UniProt A0A6M3U4F6). The assay can be described thus: ELISA.
Turning to B1, the binding result is on record as “binds”.
In the case of B2, the binding result was “binds”.
With B3, the binding result was “binds”.
Regarding B4, the binding result is listed as “binds”.

The target in another assay is T1, SARS-CoV-2 receptor binding domain (RBD), wild type, monomeric (SARS-CoV-2, GenBank MN975262.1 (wild …, UniProt A0A679G9E9)). The assay can be described thus: ELISA.
As to B1, the binding result is recorded as “binds”.
On the same count and under the same terms, next, B2: “binds”; B5: “binds”; B3: “binds”.
Turning to B4, the binding result is “binds”.
Take B6: the binding result was “binds”.

The target in another assay is SARS-CoV RBD (SARS-CoV, GenBank ABD72970.1, UniProt Q202E5). Description: ELISA.
For the molecule B1, the binding result is recorded as “binds”.
Regarding B2, the binding result is given as “binds”.
Turning to B3, the binding result was “binds”.
Regarding B4, the binding result was “binds”.

A further assay deals with T1, SARS-CoV-2 receptor binding domain …. Description: BLI. In general terms: Biolayer interferometry detects binding as a change in optical thickness at a sensor tip.
With B7, the binding result was “binds”.

Source of the values: publication PMC7885909 (bioRxiv, 2021).
